Reference: publication PMC3039672

Molecular target: partial heads (10am13am phage T4 heads that ejected most of their packaged DNA, keeping a ~8-kb piece) (bacteriophage T4) (UniProt P13334)
Sequence of UniProt P13334 (P13334 whole entry, looked up): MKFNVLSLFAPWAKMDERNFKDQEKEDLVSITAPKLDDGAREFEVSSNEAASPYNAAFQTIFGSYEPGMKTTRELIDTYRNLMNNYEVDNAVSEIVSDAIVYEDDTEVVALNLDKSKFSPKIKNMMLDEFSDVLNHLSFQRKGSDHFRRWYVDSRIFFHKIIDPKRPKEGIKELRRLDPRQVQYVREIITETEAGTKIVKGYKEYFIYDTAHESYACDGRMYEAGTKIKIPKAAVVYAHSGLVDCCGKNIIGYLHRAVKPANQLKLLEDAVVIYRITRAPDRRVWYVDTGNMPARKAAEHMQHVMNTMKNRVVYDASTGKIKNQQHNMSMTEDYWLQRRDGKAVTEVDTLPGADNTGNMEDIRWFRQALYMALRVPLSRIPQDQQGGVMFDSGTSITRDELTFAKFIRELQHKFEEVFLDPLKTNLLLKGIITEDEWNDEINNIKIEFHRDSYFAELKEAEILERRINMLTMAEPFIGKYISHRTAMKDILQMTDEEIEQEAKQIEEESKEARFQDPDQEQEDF

full-length gp17 (large terminase protein, packaging motor) (from UniProt P17312 1-610) (enzyme)
single molecule optical tweezers: packaging rate of 10-kb DNA against 5 pN by head-gp17 complexes: 1100 bp/s
